Data on 5 molecules can be found in patent US20250326817A1 (LA JOLLA INSTITUTE FOR IMMUNOLOGY, published 2025).

The term Kd denotes the concentration at which binding is half-saturated. A higher Kd goes with lower affinity.

Sequences and labels used below:
B1: mouse HVEM (Q39-Q206), wild type, fused to human IgG1 and a hexa-His tag (Fc fusion)
chain (part 1 of 2): QPSCRQEEFLVGDECCPMCNPGYHVKQVCSEHTGTVCAPCPPQTYTAHANGLSKCLPCGVCDPDMGLLTWQECSSWKDTVCRCIPGYFCENQDGSHCSTCLQHTTCPPGQRVEKRGTHDQDTVCADCLTGTFSLGGTQEECLPWTNCSAFQQEVRRGTNSTDTTCSSQ
chain (part 2 of 2): HHHHHH
notes: From Expi293 cells; also called mHVEM-hIgG1; mHVEMWT; not shown: human IgG1
B4: mouse CD160 residues I30-H154 with C-terminal HHHHHHGGGGSGLNDIFEAQKIEWHE, refolded from E. coli inclusion bodies (receptor)
chain: IHVTSSASQKGGRLDLTCTLWHKKDEAEGLILFWCKDNPWNCSPETNLEQLRVKRDPETDGITEKSSQLVFTIEQATPSDSGTYQCCARSQKPEIYIHGHFLSVLVTGNHTEIRQRQRSHPDFSHHHHHHHGGGGSGLNDIFEAQKIEWHE
modifications: biotin (mCD160-biotin in the cell staining assay; site not stated)
notes: range 30-154; also called mCD160; mCD160-biotin
B5: mouse BTLA, soluble protein (analyte of the Octet assay) (receptor, UniProt Q7TSA3 30-183, looked up)
chain: EKATKRNDEECPVQLTITRNSKQSARTGELFKIQCPVKYCVHRPNVTWCKHNGTICVPLEVSPQLYTSWEENQSVPVFVLHFKPIHLSDNGSYSCSTNFNSQVINSHSVTIHVRERTQNSSEHPLITVSDIPDATNASGPSTMEERPGRTWLLY
notes: The construct is not described; also called mBTLA; mBTLA-penta-His-tag

Assay [1] addresses T1, single chain homotrimeric mouse LIGHT extracellular domain (G73-V239), N-terminal HHHHHHGG, joined by two … (mouse, UniProt Q9QYH9 73-239).
T1 construct: Soluble analyte of the Octet assay; from Expi293 cells; also called mLIGHT
T1 sequence: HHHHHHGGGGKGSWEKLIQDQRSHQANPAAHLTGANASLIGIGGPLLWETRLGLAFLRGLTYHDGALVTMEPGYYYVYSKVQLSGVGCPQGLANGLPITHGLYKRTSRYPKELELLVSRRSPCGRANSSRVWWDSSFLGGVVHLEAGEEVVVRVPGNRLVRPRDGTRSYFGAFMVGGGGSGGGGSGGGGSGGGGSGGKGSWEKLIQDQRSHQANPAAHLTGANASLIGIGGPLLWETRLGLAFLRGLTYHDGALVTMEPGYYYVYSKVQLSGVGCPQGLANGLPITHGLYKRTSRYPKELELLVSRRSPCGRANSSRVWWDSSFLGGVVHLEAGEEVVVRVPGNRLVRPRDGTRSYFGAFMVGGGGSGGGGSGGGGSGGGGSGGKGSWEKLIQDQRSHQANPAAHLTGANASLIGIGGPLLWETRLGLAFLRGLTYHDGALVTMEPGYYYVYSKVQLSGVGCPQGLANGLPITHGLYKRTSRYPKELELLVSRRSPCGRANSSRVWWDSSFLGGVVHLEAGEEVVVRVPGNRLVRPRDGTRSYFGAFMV
The assay can be described thus: Octet bio-layer interferometry, mHVEM-hIgG1 on the sensor, LIGHT in solution. An excerpt: (§1) The results were exported and then analyzed using Prism 5 (GraphPad Software). Final response curves were generated after subtracting the responses of the control groups.
(In general: Biolayer interferometry detects binding as a change in optical thickness at a sensor tip.)

Assay [2] has as its target T1, single chain homotrimeric mouse LIGHT …. As to the kind of experiment: Octet bio-layer interferometry, mHVEM-hIgG1 on the sensor, mLIGHT in solution.
From the text: (§2) Error bars represent results from at least triplicates. […] Ligands BTLA, CD160 and LIGHT are modeled based on the HVEM structures and are shown as labeled surfaces.
as §1

The target of assay [3] is B5. The assay can be described thus: Octet bio-layer interferometry, mHVEM-hIgG1 on the sensor, BTLA in solution.
From the text: as §1

Assay [4] concerns the target B4. As to the kind of experiment: Octet BLI, mHVEM-hIgG1 immobilised (text says surface plasmon resonance).
From the text: as §1

The target of assay [5] is B5. The assay is described as above.
From the text: as §1

The target in assay [6] is T1, single chain homotrimeric mouse LIGHT …. The description is as above.
From the text: as §1

The target of assay [7] is B4. The assay can be described thus: Octet bio-layer interferometry, mHVEM-hIgG1 on the sensor, mCD160 in solution.
From the text: as §2, §1

Assay [8] addresses B5. The assay can be described thus: Octet bio-layer interferometry, mHVEM-hIgG1 on the sensor, mBTLA in solution.
From the text: as §2, §1

For assay [9], the target named is B4. As to the kind of experiment: Octet bio-layer interferometry, mHVEM-hIgG1 on the sensor, CD160 in solution.
From the text: as §1

Assay [10] addresses B1. The assay can be described thus: Octet bio-layer interferometry, mHVEM-hIgG1 on the sensor, mCD160 in solution.
From the text: as §2, §1

Assay [11] concerns the target B1. The assay can be described thus: Octet bio-layer interferometry, mHVEM-hIgG1 on the sensor, CD160 in solution.
From the text: as §1

For assay [12], the target named is B1. As to the kind of experiment: Octet bio-layer interferometry, mHVEM-hIgG1 on the sensor, BTLA in solution.
From the text: as §1

Assay [13] has as its target B1. As to the kind of experiment: Octet bio-layer interferometry, mHVEM-hIgG1 on the sensor, mBTLA in solution.
From the text: as §2, §1

In the case of B1, the dissociation constant Kd in assay [1] and in [2] was 0.0162 µM each time.

B2: mouse HVEM (Q39-Q206) H86D-L90A fused to human IgG1 and a hexa-His tag, soluble form (Fc fusion)
chain (part 1 of 2): QPSCRQEEFLVGDECCPMCNPGYHVKQVCSEHTGTVCAPCPPQTYTADANGASKCLPCGVCDPDMGLLTWQECSSWKDTVCRCIPGYFCENQDGSHCSTCLQHTTCPPGQRVEKRGTHDQDTVCADCLTGTFSLGGTQEECLPWTNCSAFQQEVRRGTNSTDTTCSSQ
chain (part 2 of 2): HHHHHH
notes: also called mHVEM^-LIGHT; mHVEM-LIGHT; not shown: human IgG1
For B2, the Kd in assay [3] was found to be 5.3 µM; in assay [1], 31.7 µM; in assay [7], 33.5 µM; in assay [8] it was 5.3 µM; in assay [9], 33.5 µM; in [2] it was 31.7 µM. Moreover, the entries for the “fold reduction of binding against wild-type mHVEM” value in assay [4] and in assay [5] were roughly 3 fold and roughly 5 fold, respectively. In addition, the “log-fold decrease in binding against wild-type mHVEM” value in assay [6] is greater than 3 log-fold.

B3: mouse HVEM (Q39-Q206) G72R-V74A fused to human IgG1 and a hexa-His tag, soluble form (Fc fusion)
chain (part 1 of 2): QPSCRQEEFLVGDECCPMCNPGYHVKQVCSEHTRTACAPCPPQTYTAHANGLSKCLPCGVCDPDMGLLTWQECSSWKDTVCRCIPGYFCENQDGSHCSTCLQHTTCPPGQRVEKRGTHDQDTVCADCLTGTFSLGGTQEECLPWTNCSAFQQEVRRGTNSTDTTCSSQ
chain (part 2 of 2): HHHHHH
notes: also called mHVEM^-BT/160; mHVEM-BT/160; not shown: human IgG1
In the case of B3, the Kd in assay [1] and in assay [2] was 0.0293 µM each time. Besides, the binding result in assay [7] and in [8] was “no binding” in each case.
In the case of B4, the Kd in assay [10] and in [11] was 11.6 µM in each case.
On to B5, for which the dissociation constant Kd in assay [12] and in assay [13] was 1.1 µM each time.
